This test has as its target T1, Hik2-GST (full-length Histidine kinase 2 of Synechocystis sp. PCC 6803, GST-tagged) (Synechocystis sp. (strain ATCC 27184 / …, UniProt P73276)).
T1 chain: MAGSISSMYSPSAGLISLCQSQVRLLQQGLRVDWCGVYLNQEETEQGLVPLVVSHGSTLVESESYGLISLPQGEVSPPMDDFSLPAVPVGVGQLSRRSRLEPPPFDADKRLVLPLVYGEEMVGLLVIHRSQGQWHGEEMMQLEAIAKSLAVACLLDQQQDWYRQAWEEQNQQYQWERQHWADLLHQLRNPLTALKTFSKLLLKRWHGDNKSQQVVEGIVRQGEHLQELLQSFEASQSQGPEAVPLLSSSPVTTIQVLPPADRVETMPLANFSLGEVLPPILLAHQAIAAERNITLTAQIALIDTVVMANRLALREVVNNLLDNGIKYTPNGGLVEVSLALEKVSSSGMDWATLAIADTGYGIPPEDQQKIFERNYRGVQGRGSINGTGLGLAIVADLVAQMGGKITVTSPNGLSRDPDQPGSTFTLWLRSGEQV
In words: GST pull-down.

B1: Rre1_Rec-His6 (receiver domain of Response regulator 1) (protein)
chain: MAEPISLLLVDDEPGVRESVQAFLEDSGDFKVDLAANATEAWDYLQHHLPALVISDIMMPQVDGYQFLQKLREDARFQSLPVVFLTARGMTGDRIQGYQTGCDAFLSKPFDPDELEAIVRNLL
Turning to B1, the binding result is recorded as “binds”.

(Values after publication PMC4751278 (2016).)
